According to US20240376207A1 (JIANGSU HENGRUI PHARMACEUTICALS, published 2024):
Residue numbers refer to the chain shown, from its start.

T1: human PVRIG expressed on cells (human, UniProt Q6DKI7 41-326)
T1 sequence (looked up): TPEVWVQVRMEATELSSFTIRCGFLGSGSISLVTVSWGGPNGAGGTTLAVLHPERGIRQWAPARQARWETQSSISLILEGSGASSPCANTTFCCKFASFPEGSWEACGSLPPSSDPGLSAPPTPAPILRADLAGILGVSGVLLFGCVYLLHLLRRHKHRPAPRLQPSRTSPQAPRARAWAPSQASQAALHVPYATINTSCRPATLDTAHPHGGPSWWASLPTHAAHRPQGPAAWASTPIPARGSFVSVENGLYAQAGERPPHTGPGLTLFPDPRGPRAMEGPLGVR

T2: his-tagged human PVRIG (h-PVRIG-his) recombinant protein (human, UniProt Q6DKI7 41-171, limits assumed)
T2 construct: bought from Acrobiosystems; also called Human PVRIG-his; human PVRIG recombinant protein; not shown: his tag
T2 sequence (looked up): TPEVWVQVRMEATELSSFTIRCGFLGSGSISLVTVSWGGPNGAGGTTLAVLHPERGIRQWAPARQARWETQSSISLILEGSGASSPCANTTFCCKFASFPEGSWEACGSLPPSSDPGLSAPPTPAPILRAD

T3: cynomolgus monkey PVRIG expressed on cells (cynomolgus monkey, UniProt A0A2K5WVV8 1-322)
T3 construct: whole, on cells; also called Monkey PVRIG FACS; cells overexpressing cynomolgus monkey PVRIG
T3 sequence: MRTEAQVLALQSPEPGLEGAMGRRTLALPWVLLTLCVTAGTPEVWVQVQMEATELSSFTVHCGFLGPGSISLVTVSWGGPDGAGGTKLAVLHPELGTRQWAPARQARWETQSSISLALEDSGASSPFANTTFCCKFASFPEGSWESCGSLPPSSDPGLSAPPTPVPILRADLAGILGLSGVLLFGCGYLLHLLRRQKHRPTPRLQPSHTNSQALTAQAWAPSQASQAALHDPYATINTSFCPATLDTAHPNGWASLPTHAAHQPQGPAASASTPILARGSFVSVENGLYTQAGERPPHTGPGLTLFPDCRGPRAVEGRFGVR

B1: humanized anti-PVRIG antibody 39H4 (antibody, human IgG4 S228P, F234A L235A, V domains shown)
VH: EVQLVESGGGLVQPGGSLRLSCAASGYTSRTDCMGWFRQAPGKGLEGVAHIDSDGIPRYVESVKGRFTISQDHAKNSLYLQMNSLRAEDTAVYYCVVGFKFGDYCAPNDWGQGTMVTVSS
B2: humanized anti-PVRIG antibody 39H2 (antibody, human IgG4 S228P, F234A L235A, V domains shown)
VH: B1 VH with Y27F, Q71R, H73N
B3: humanized anti-PVRIG antibody 39H1 (antibody, human IgG4 S228P, F234A L235A, V domains shown)
VH: B1 VH with Y27F, S29F, R30S, Q71R, H73N
B4: humanized anti-PVRIG antibody 30H3 (antibody, human IgG4 S228P, F234A L235A, V domains shown)
VH: EVQLVESGGGLVQPGGSLRLSCAASGYSYSGDCMGWFRQAPGKGLDEGVATIDNAGRIKYADSVKGRFTISRDNAKNSLYLQMNSLRAEDTAVYYCAAGWTFGGQCSPADWGQGTQVTVSS
B5: humanized anti-PVRIG antibody 151H7 (antibody, human IgG4 S228P, F234A L235A, V domains shown)
VH: HVQLVESGGGLVQPGGSLRLSCVASASGFTYRPYCMAWFRQAPGKEREAVAGIDIFGGTTYADSVKGRFTASRDNAGFSLYLQMNSLRAEDTAVYYCAAGDSPDGRCPPLGQGLNYWGQGTMVTVSS
B6: humanized anti-PVRIG antibody 151H4 (antibody, human IgG4 S228P, F234A L235A, V domains shown)
VH: B5 VH with H1E, E46G, R47L, A71I, G77K, F78N
B7: humanized anti-PVRIG antibody 20H5 (antibody, human IgG4 S228P, F234A L235A, V domains shown)
VH: EVQLVESGGGLVQPGGSLRLSCAASGYTSRTDCMGWFRQAPGKEHEGVAHIDSDGIPRYVDSVKGRFTISQDHAKNSLYLQMNSLRAEDTAVYYCVVGFKFDEDYCAPNDWGQGTMVTVSS
B8: humanized anti-PVRIG antibody 38H9 (antibody, human IgG4 S228P, F234A L235A, V domains shown)
VH: EVQLVESGGGVVQPGGSLRLSCAASPSTYGPSDMAWFRQAPGKGLEGVATISAAGRLTYYTDSVRGRFTISRDNSKNTMYLQMNSLRAEDTAVYYCAADFAGGSSLFADYKYWGQGTMVTVSS
B9: humanized anti-PVRIG antibody 38H7 (antibody, human IgG4 S228P, F234A L235A, V domains shown)
VH: B8 VH with G44Q, L45R
B10: humanized anti-PVRIG antibody 38H4 (antibody, human IgG4 S228P, F234A L235A, V domains shown)
VH: B8 VH with S27F, M79L
B11: humanized anti-PVRIG antibody 38H8 (antibody, human IgG4 S228P, F234A L235A, V domains shown)
VH: B8 VH with M79L
B12: humanized anti-PVRIG antibody 38H2 (antibody, human IgG4 S228P, F234A L235A, V domains shown)
VH: B8 VH with P26G, S27F, Y29F, G30S, M79L
B13: humanized anti-PVRIG antibody 39H3 (antibody, human IgG4 S228P, F234A L235A, V domains shown)
VH: B1 VH with S29F, R30S
B14: humanized anti-PVRIG antibody 39H5 (antibody, human IgG4 S228P, F234A L235A, V domains shown)
VH: B1 VH with G44E, L45R
B15: humanized anti-PVRIG antibody 151H9 (antibody, human IgG4 S228P, F234A L235A, V domains shown)
VH: B5 VH with E46G, R47L
B16: humanized anti-PVRIG antibody 20H4 (antibody, human IgG4 S228P, F234A L235A, V domains shown)
VH: B7 VH with E44G, H45L
B17: humanized anti-PVRIG antibody 20H1 (antibody, human IgG4 S228P, F234A L235A, V domains shown)
VH: B7 VH with Y27F, S29F, R30S, E44G, H45L, Q71R, H73N
B18: humanized anti-PVRIG antibody 20H3 (antibody, human IgG4 S228P, F234A L235A, V domains shown)
VH: B7 VH with S29F, R30S, E44G, H45L
B19: humanized anti-PVRIG antibody 20H2 (antibody, human IgG4 S228P, F234A L235A, V domains shown)
VH: B7 VH with Y27F, E44G, H45L, Q71R, H73N
B20: humanized anti-PVRIG antibody 30H1 (antibody, human IgG4 S228P, F234A L235A, V domains shown)
VH: EVQLVESGGGLVQPGGSLRLSCAASGFTFSGDCMGWFRQAPGKGLEGVATIDNAGRIKYADSVKGRFTISRDNAKNSLYLQMNSLRAEDTAVYYCAAGWTFGGQCSPADWGQGTQVTVSS

target: T1, human PVRIG expressed on cells; test: cell-based or functional assay

PVRIG reporter gene cell activity EC50	Binder
0.094 nM	B1
0.074 nM	B2
0.191 nM	B3
0.078 nM	B4
0.038 nM	B5
3.55 nM	B6
0.042 nM	B7

target: T1, human PVRIG expressed on cells; test: cell-based or functional assay; remark: another data set of the same source

Binder	NK92 killing of K562, killing activity (%), 4 nM antibody	NK92 killing of K562, killing activity (%), 20 nM antibody	NK92 killing of K562, killing activity (%), 100 nM antibody
B2	15.3%	18.7%	19.7%
B3	13.7%	17.7%	21.2%
B5	16.9%	21%	18.4%

target: T2, his-tagged human PVRIG (h-PVRIG-his) …; test: BLI (Fortebio), antibody on Protein A sensor, 1:1 fit
Description: A Protein A biosensor (Fortebio, #18-5010) was immersed in 200 μL of KB buffer (PBS, pH 7.4, 0.02% tween-20, 0.1% BSA) for 60 s for the wetting treatment. Then, the anti-PVRIG antibody was diluted to 10 μg/mL with the KB buffer, and the sensor was immersed in 200 μL of the solution until the reading was 1.2 nm. The sensor was immersed in the KB buffer for 100 s to elute excess antibody. The his-tagged human PVRIG was diluted in a 2-fold gradient to 64 nM-4 nM with the KB buffer. The sensor was immersed in the solution for 300 s for binding. The sensor was immersed in the KB buffer for 600 s for dissociation. The data were fitted in a dynamic 1:1 binding mode.
The affinity of the humanized anti-PVRIG antibodies for human PVRIG was detected according to the method of Example 7. All the antibodies listed in the Table have high affinity for human PVRIG.

Kd	koff	kon	Binder
0.482 nM	9.11e-05 s⁻¹	189000 M⁻¹ s⁻¹	B1
0.692 nM	0.000124 s⁻¹	180000 M⁻¹ s⁻¹	B2
3.28 nM	0.000865 s⁻¹	264000 M⁻¹ s⁻¹	B3
2.41 nM	0.000358 s⁻¹	148000 M⁻¹ s⁻¹	B4
1.2 nM	0.000188 s⁻¹	157000 M⁻¹ s⁻¹	B5
0.0698 nM	1.35e-05 s⁻¹	193000 M⁻¹ s⁻¹	B7

target: T1, human PVRIG expressed on cells; test: FACS, HEK293 cells overexpressing target
Description: (§1) The expression plasmid carrying human or cynomolgus monkey PVRIG gene sequence was transfected into HEK293 cells, and the over-expressing stable transfection monoclonal cell strain was obtained by antibiotic screening and infinite dilution. Overexpressing cells were seeded into a 96-well plate at 2×10⁵ cells/per well. The cells were centrifuged at 300 g for 5 min, the supernatant was then removed, 100 μL of the test antibody was added, and the mixture was incubated at 4° C. for 1 h. The mixture was centrifuged, the supernatant was removed, the plate was washed 3 times with 200 μL of wash buffer (PBS+2% FBS), and then 100 μL of an anti-human IgG secondary antibody (Invitrogen, A-11013) labeled with Alexa Fluor 488 diluted at 1:500 was added. The mixture was incubated at 4° C. for 1 h. The plate was centrifuged, and the supernatant was removed. The plate was washed 3 times with 200 μL of wash buffer (PBS+2% FBS). The cells were resuspended in 100 μL of PBS and tested on a flow cytometer (BD FACS Calibur or BD FACS Canto_II).
(§2) Binding of the humanized anti-PVRIG antibodies to human or cynomolgus monkey PVRIG was detected by using a flow cytometer according to the method of Example 5.

EC50	Binder
0.068 nM	B8
0.04 nM	B9
0.062 nM	B10
0.065 nM	B11
0.088 nM	B12
0.005 nM	B1
0.005 nM	B13
0.006 nM	B14
0.006 nM	B2
0.004 nM	B3
0.004 nM	B4
0.004 nM	B15
0.002 nM	B5
0.24 nM	B6
0.005 nM	B7
0.008 nM	B16
0.019 nM	B17
0.006 nM	B18
0.006 nM	B19
0.024 nM	B20

target: T3, cynomolgus monkey PVRIG expressed on …; test: FACS, HEK293 cells overexpressing target
Description: as §1, §2

EC50	Binder
0.049 nM	B9
0.095 nM	B10
0.137 nM	B12
0.006 nM	B1
0.348 nM	B13
0.208 nM	B14
0.019 nM	B2
0.251 nM	B3
0.003 nM	B4
3.94 nM	B15
0.467 nM	B5
0.035 nM	B6
0.007 nM	B7
0.591 nM	B16
0.658 nM	B17
1.5 nM	B18
0.338 nM	B19
0.374 nM	B20

target: T1, human PVRIG expressed on cells; test: cell-based or functional assay; remark: another data set of the same source

Binder	NK92 killing of K562, killing activity (%), 4 nM antibody	NK92 killing of K562, killing activity (%), 20 nM antibody	NK92 killing of K562, killing activity (%), 100 nM antibody
B7	9.2%	9.9%	13.3%
